Values quoted from earlier work, collected in publication PMC11381654.

Biological target: IL-4Rα (Homo sapiens) (UniProt P24394)

Substance: dupilumab
- Kd: 33 pM
